Measurements taken from patent publication US20260258465, “NUCLEIC ACID-GUIDED DNA SYNTHESIS” (The Trustees of Columbia University in the City of New York, published 2026).

Target: T1, KpnDRT2 reverse transcriptase (Klebsiella pneumoniae)
T1 chain: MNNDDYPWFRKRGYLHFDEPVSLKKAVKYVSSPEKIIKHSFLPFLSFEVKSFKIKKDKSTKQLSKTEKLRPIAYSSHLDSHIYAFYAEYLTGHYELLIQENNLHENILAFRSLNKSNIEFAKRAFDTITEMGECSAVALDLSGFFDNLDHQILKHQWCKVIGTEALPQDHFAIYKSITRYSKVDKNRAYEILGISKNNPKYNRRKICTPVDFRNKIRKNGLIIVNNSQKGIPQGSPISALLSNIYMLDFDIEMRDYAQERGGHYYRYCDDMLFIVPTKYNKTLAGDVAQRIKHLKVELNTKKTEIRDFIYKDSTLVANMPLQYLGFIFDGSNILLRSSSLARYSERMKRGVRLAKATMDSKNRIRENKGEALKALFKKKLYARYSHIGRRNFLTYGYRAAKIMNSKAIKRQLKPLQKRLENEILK
Experiment: EMSA; 20 mM HEPES pH 7.5, 5 mM MgCl2, 200 mM NaCl, 37 C
Details: tags: N-terminal His6-GST removed by TEV; C-terminal StrepII; stem-loops SL1-SL8
Procedure: To test binding of the ncRNA by the RT, the purified ncRNA was mixed with increasing amounts of the RT in reaction buffer (20 mM HEPES pH 7.5, 5 mM MgCl₂, 5% glycerol, 200 mM NaCl, and 1 mM DTT). Samples were incubated at 37° C. for 15 minutes and analyzed by electrophoretic mobility shift assay (EMSA). The shift in mobility at higher concentrations of RT enzyme indicates binding of the ncRNA by the RT (FIG. 14A).

B1: KpnDRT2 ncRNA WT (ssRNA)
RNA: GCCCUAAACAAAGGUUUAGGGGUAUUGUACAGGUUGUCAAGCCUCCCACAGGUCUUGGUGAAACCAAUCACUGUGACGACGGUAAGCAACACUUGGAUGAUAUUCAUAAUUGACUCCACGCUACUGAUUACAUUAUACAGCAUAUCUAACAUUUGCGGCGAGGUUCACAAUUUGUAUUUAGGUACUGAUUGUGGAUGAGAAGGUUGGAGAAAGACCACUUGGUUAAGCCGGAGGAUGUGUCCUAGAAUUGUCGCUAUUCUGUCAUCCUCCGGUUUUGCUAA
binding result: binds
